Measured values from patent US20240245771A1 (XUZHOU MEDICAL UNIVERSITY, published 2024).

Target: T1, B7H3 target antigen (UniProt Q5ZPR3 29-466, limits assumed)
T1 construct: Control antigen is called 'other biotin-free antigen', which hints that this antigen may be biotinylated; also called B7H3 antigen; B7-H3 antigen
T1 sequence (looked up): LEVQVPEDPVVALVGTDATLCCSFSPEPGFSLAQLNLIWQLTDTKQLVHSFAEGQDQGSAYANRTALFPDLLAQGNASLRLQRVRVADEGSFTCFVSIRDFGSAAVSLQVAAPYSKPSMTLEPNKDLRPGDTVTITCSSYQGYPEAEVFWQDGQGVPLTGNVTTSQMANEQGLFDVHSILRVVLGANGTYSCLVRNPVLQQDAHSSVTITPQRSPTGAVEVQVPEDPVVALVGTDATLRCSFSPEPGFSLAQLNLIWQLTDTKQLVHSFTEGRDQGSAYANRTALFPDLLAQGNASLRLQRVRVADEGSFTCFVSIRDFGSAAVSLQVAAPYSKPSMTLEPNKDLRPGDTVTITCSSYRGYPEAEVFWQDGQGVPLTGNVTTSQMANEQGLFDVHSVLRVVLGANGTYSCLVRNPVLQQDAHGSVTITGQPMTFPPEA
Assay: Biacore SPR, antibody captured on Protein A chip, antigen flowed, Langmuir fit
Description: The B7-H3 antigen was allowed to flow over the chip surface using a series of concentration gradients. The binding time was 120 s, and the dissociation time was 120 s. After the cycle dissociation was completed, the biochip was washed with glycine-hydrochloric acid (pH=1.5) buffer, the sample injection was performed at 30 μL/min, and regeneration was performed for 30 s. Reaction signals were detected in real time using a Biacore instrument, and thus binding and dissociation curves were obtained.
The data obtained from the experiment were fitted with the Langmuir model using GE software.

Kd: 27.8 nM
B1: purified B7H3-02 scFv protein (prokaryotic expression, pET-22b) (scFv)
scFv: EVQLFQSGGGLVQPGGSLRLSCAASGFTFSSYAMSWVRQAPGKGLEWVSAISGSGGSTYYADSVKGRFTISRDNSKNTLYLQMNSLRAEDTAVYYCARGVGRGFDYWGQGTTVTVSSSGGGSGGGGSGGGGSDIQLTQSPSSLSASVGDRVTITCRASQSISIYLNWYRQQPGKAPKLLIYAASSLQSGVPSRFSGSGSGTDFTLTISSLQPEDFATYFCQQTYSTPPWTFGQGTKVDIK
notes: The Biacore experiment speaks of 'purified B7H3-02 antibodies' captured on a Protein A chip; also called B7H3-02 scFv antibody; B7H3-02 antibody; not shown: His tag implied (detected with His antibodies, pET-22b vector)
